Experimental data taken from the Human Domainome abundance scans (Beltran et al. 2025).
± gives the uncertainty stated by the source.

B1: Far upstream element-binding protein 1, residues 184 to 257; numbered along this chain, Q96AE4 (parent)
chain: GNAVQEIMIPASKAGLVIGKGGETIKQLQERAGVKMVMIQDGPQNTGADKPLRITGDPYKVQQAKEMVLELIRD
B2: Tudor domain-containing protein 3, residues 554 to 611; numbered along this chain, Q9H7E2 (parent)
chain: KMWKPGDECFALYWEDNKFYRAEVEALHSSGMTAVVKFIDYGNYEEVLLSNIKPIQTE

Variants of: B1
Experiment: abundance fitness (aPCA) (normalised: wild type 0, dead -1); higher = more abundant; growth selection in yeast, the domain comes from the species named
Conditions: Homo sapiens

| Variant | abundance fitness |
| --- | --- |
| GNAVQEIMIPASKAGLVIGKGGETIKQLQERAGVKMVMIQDGPQNTGADKPLRITGDPYKVQQAKEMVLELMRD [I72M] | -0.009 ± 0.039 |
| GNAVQEIMIPASKAGLVIGKGGETIKQLQERAGVKMVMIQDGPQNTGADKPLRITGDPYKVQQAKEMVLELFRD [I72F] | -0.136 ± 0.045 |
| GNAVQEIMIPASKAGLVIGKGGETIKQLQERAGVKMVMIQDGPQNTGADKPLRITGDPYKVQQAKEMVLELKRD [I72K] | -0.405 ± 0.043 |
| GNAVQEIMIPASKAGLVIGKGGETIKQLQERAGVKMVMIQDGPQNTGADKPLRITGDPYKVQQAKEMVLELARD [I72A] | -0.173 ± 0.032 |
| GNAVQEIMIPASKAGLVIGKGGETIKQLQERAGVKMVMIQDGPQNTGADKPLRITGDPYKVQQAKEMVLELLRD [I72L] | 0.01 ± 0.03 |
| GNAVQEIMIPASKAGLVIGKGGETIKQLQERAGVKMVMIQDGPQNTGADKPLRITGDPYKVQQAKEMVLELTRD [I72T] | -0.072 ± 0.034 |
| GNAVQEIMIPASKAGLVIGKGGETIKQLQERAGVKMVMIQDGPQNTGADKPLRITGDPYKVQQAKEMVLELYRD [I72Y] | -0.276 ± 0.044 |
| GNAVQEIMIPASKAGLVIGKGGETIKQLQERAGVKMVMIQDGPQNTGADKPLRITGDPYKVQQAKEMVLELHRD [I72H] | -0.524 ± 0.06 |
| GNAVQEIMIPASKAGLVIGKGGETIKQLQERAGVKMVMIQDGPQNTGADKPLRITGDPYKVQQAKEMVLELERD [I72E] | -0.295 ± 0.035 |
| GNAVQEIMIPASKAGLVIGKGGETIKQLQERAGVKMVMIQDGPQNTGADKPLRITGDPYKVQQAKEMVLELNRD [I72N] | -0.398 ± 0.052 |
| GNAVQEIMIPASKAGLVIGKGGETIKQLQERAGVKMVMIQDGPQNTGADKPLRITGDPYKVQQAKEMVLELWRD [I72W] | -0.353 ± 0.035 |
| GNAVQEIMIPASKAGLVIGKGGETIKQLQERAGVKMVMIQDGPQNTGADKPLRITGDPYKVQQAKEMVLELVRD [I72V] | 0.011 ± 0.03 |
| GNAVQEIMIPASKAGLVIGKGGETIKQLQERAGVKMVMIQDGPQNTGADKPLRITGDPYKVQQAKEMVLELCRD [I72C] | 0.045 ± 0.04 |
| GNAVQEIMIPASKAGLVIGKGGETIKQLQERAGVKMVMIQDGPQNTGADKPLRITGDPYKVQQAKEMVLELQRD [I72Q] | -0.24 ± 0.037 |
| GNAVQEIMIPASKAGLVIGKGGETIKQLQERAGVKMVMIQDGPQNTGADKPLRITGDPYKVQQAKEMVLELDRD [I72D] | -0.408 ± 0.049 |
| GNAVQEIMIPASKAGLVIGKGGETIKQLQERAGVKMVMIQDGPQNTGADKPLRITGDPYKVQQAKEMVLELGRD [I72G] | -0.329 ± 0.028 |
| GNAVQEIMIPASKAGLVIGKGGETIKQLQERAGVKMVMIQDGPQNTGADKPLRITGDPYKVQQAKEMVLELSRD [I72S] | -0.301 ± 0.032 |
| GNAVQEIMIPASKAGLVIGKGGETIKQLQERAGVKMVMIQDGPQNTGADKPLRITGDPYKVQQAKEMVLELRRD [I72R] | -0.498 ± 0.029 |
| GNAVQEIMIPASKAGLVIGKGGETIKQLQERAGVKMVMIQDGPQNTGADKPLRITGDPYKVQQAKEMVLELPRD [I72P] | -0.394 ± 0.036 |
| GNAVQEIMIPASKAGLVIGKGGETIKQLQERAGVKMVMIQDGPQNTGADKPLRITGDPYKVQQAKEMVLELISD [R73S] | 0.044 ± 0.031 |
| GNAVQEIMIPASKAGLVIGKGGETIKQLQERAGVKMVMIQDGPQNTGADKPLRITGDPYKVQQAKEMVLELIND [R73N] | -0.004 ± 0.047 |
| GNAVQEIMIPASKAGLVIGKGGETIKQLQERAGVKMVMIQDGPQNTGADKPLRITGDPYKVQQAKEMVLELIDD [R73D] | 0.092 ± 0.047 |
| GNAVQEIMIPASKAGLVIGKGGETIKQLQERAGVKMVMIQDGPQNTGADKPLRITGDPYKVQQAKEMVLELIVD [R73V] | -0.038 ± 0.036 |
| GNAVQEIMIPASKAGLVIGKGGETIKQLQERAGVKMVMIQDGPQNTGADKPLRITGDPYKVQQAKEMVLELIED [R73E] | 0.088 ± 0.04 |
| GNAVQEIMIPASKAGLVIGKGGETIKQLQERAGVKMVMIQDGPQNTGADKPLRITGDPYKVQQAKEMVLELIHD [R73H] | 0.031 ± 0.053 |
| GNAVQEIMIPASKAGLVIGKGGETIKQLQERAGVKMVMIQDGPQNTGADKPLRITGDPYKVQQAKEMVLELIWD [R73W] | -0.033 ± 0.036 |
| GNAVQEIMIPASKAGLVIGKGGETIKQLQERAGVKMVMIQDGPQNTGADKPLRITGDPYKVQQAKEMVLELIMD [R73M] | 0.001 ± 0.039 |
| GNAVQEIMIPASKAGLVIGKGGETIKQLQERAGVKMVMIQDGPQNTGADKPLRITGDPYKVQQAKEMVLELICD [R73C] | -0.002 ± 0.043 |

| Variant | abundance fitness |
| --- | --- |
| GNAVQEIMIPASKAGLVIGKGGETIKQLQERAGVKMVMIQDGPQNTGADKPLRITGDPYKVQQAKEMVLELILD [R73L] | -0.1 ± 0.034 |
| GNAVQEIMIPASKAGLVIGKGGETIKQLQERAGVKMVMIQDGPQNTGADKPLRITGDPYKVQQAKEMVLELIPD [R73P] | -0.208 ± 0.039 |
| GNAVQEIMIPASKAGLVIGKGGETIKQLQERAGVKMVMIQDGPQNTGADKPLRITGDPYKVQQAKEMVLELIKD [R73K] | 0.015 ± 0.042 |
| GNAVQEIMIPASKAGLVIGKGGETIKQLQERAGVKMVMIQDGPQNTGADKPLRITGDPYKVQQAKEMVLELIAD [R73A] | 0.111 ± 0.032 |
| GNAVQEIMIPASKAGLVIGKGGETIKQLQERAGVKMVMIQDGPQNTGADKPLRITGDPYKVQQAKEMVLELIID [R73I] | -0.15 ± 0.058 |
| GNAVQEIMIPASKAGLVIGKGGETIKQLQERAGVKMVMIQDGPQNTGADKPLRITGDPYKVQQAKEMVLELIQD [R73Q] | 0.048 ± 0.044 |
| GNAVQEIMIPASKAGLVIGKGGETIKQLQERAGVKMVMIQDGPQNTGADKPLRITGDPYKVQQAKEMVLELIFD [R73F] | -0.197 ± 0.055 |
| GNAVQEIMIPASKAGLVIGKGGETIKQLQERAGVKMVMIQDGPQNTGADKPLRITGDPYKVQQAKEMVLELITD [R73T] | 0.043 ± 0.037 |
| GNAVQEIMIPASKAGLVIGKGGETIKQLQERAGVKMVMIQDGPQNTGADKPLRITGDPYKVQQAKEMVLELIRT [D74T] | -0.076 ± 0.042 |
| GNAVQEIMIPASKAGLVIGKGGETIKQLQERAGVKMVMIQDGPQNTGADKPLRITGDPYKVQQAKEMVLELIRC [D74C] | -0.128 ± 0.059 |
| GNAVQEIMIPASKAGLVIGKGGETIKQLQERAGVKMVMIQDGPQNTGADKPLRITGDPYKVQQAKEMVLELIRE [D74E] | -0.058 ± 0.052 |
| GNAVQEIMIPASKAGLVIGKGGETIKQLQERAGVKMVMIQDGPQNTGADKPLRITGDPYKVQQAKEMVLELIRP [D74P] | -0.016 ± 0.041 |
| GNAVQEIMIPASKAGLVIGKGGETIKQLQERAGVKMVMIQDGPQNTGADKPLRITGDPYKVQQAKEMVLELIRS [D74S] | -0.111 ± 0.037 |
| GNAVQEIMIPASKAGLVIGKGGETIKQLQERAGVKMVMIQDGPQNTGADKPLRITGDPYKVQQAKEMVLELIRM [D74M] | -0.193 ± 0.067 |
| GNAVQEIMIPASKAGLVIGKGGETIKQLQERAGVKMVMIQDGPQNTGADKPLRITGDPYKVQQAKEMVLELIRH [D74H] | -0.167 ± 0.051 |
| GNAVQEIMIPASKAGLVIGKGGETIKQLQERAGVKMVMIQDGPQNTGADKPLRITGDPYKVQQAKEMVLELIRG [D74G] | 0.008 ± 0.034 |
| GNAVQEIMIPASKAGLVIGKGGETIKQLQERAGVKMVMIQDGPQNTGADKPLRITGDPYKVQQAKEMVLELIRF [D74F] | -0.311 ± 0.063 |
| GNAVQEIMIPASKAGLVIGKGGETIKQLQERAGVKMVMIQDGPQNTGADKPLRITGDPYKVQQAKEMVLELIRY [D74Y] | -0.197 ± 0.051 |
| GNAVQEIMIPASKAGLVIGKGGETIKQLQERAGVKMVMIQDGPQNTGADKPLRITGDPYKVQQAKEMVLELIRA [D74A] | -0.089 ± 0.039 |
| GNAVQEIMIPASKAGLVIGKGGETIKQLQERAGVKMVMIQDGPQNTGADKPLRITGDPYKVQQAKEMVLELIRN [D74N] | -0.114 ± 0.048 |
| GNAVQEIMIPASKAGLVIGKGGETIKQLQERAGVKMVMIQDGPQNTGADKPLRITGDPYKVQQAKEMVLELIRL [D74L] | -0.277 ± 0.047 |
| GNAVQEIMIPASKAGLVIGKGGETIKQLQERAGVKMVMIQDGPQNTGADKPLRITGDPYKVQQAKEMVLELIRK [D74K] | -0.175 ± 0.07 |
| GNAVQEIMIPASKAGLVIGKGGETIKQLQERAGVKMVMIQDGPQNTGADKPLRITGDPYKVQQAKEMVLELIRR [D74R] | -0.089 ± 0.039 |
| GNAVQEIMIPASKAGLVIGKGGETIKQLQERAGVKMVMIQDGPQNTGADKPLRITGDPYKVQQAKEMVLELIRW [D74W] | -0.327 ± 0.076 |
| GNAVQEIMIPASKAGLVIGKGGETIKQLQERAGVKMVMIQDGPQNTGADKPLRITGDPYKVQQAKEMVLELIRQ [D74Q] | -0.059 ± 0.061 |
| GNAVQEIMIPASKAGLVIGKGGETIKQLQERAGVKMVMIQDGPQNTGADKPLRITGDPYKVQQAKEMVLEWIRD [L71W] | -0.189 ± 0.033 |
| GNAVQEIMIPASKAGLVIGKGGETIKQLQERAGVKMVMIQDGPQNTGADKPLRITGDPYKVQQAKEMVLEYIRD [L71Y] | -0.225 ± 0.055 |

Variants of: B2
Experiment: as above
Conditions: Homo sapiens

| Variant | abundance fitness |
| --- | --- |
| L48H | -0.152 ± 0.1 |
| L48T | -0.218 ± 0.084 |
| L48V | -0.354 ± 0.062 |
| L48M | -0.113 ± 0.069 |
| I55N | -0.265 ± 0.12 |
| Y20C | -0.321 ± 0.12 |
| Y20T | -0.871 ± 0.12 |
| S30A | -0.192 ± 0.061 |
| S30Q | -0.254 ± 0.11 |
| R21N | -0.678 ± 0.15 |
| R21A | -0.289 ± 0.067 |
| F10L | 0.084 ± 0.064 |
| S29G | -0.107 ± 0.057 |
| S29F | -0.186 ± 0.1 |
